Here are results for seven molecules from US20250215108A1 (OSE IMMUNOTHERAPEUTICS, published 2025).

The target of assay [1] is T1, SIRPa on human monocytes (human, UniProt P78324 31-504).
T1 construct: also called human monocytes (v1/v1); SIRPa variant 1 on monocytes
In words: flow cytometry on human monocytes v1/v1 (Fc receptors blocked), PE anti-human Fc; readout MFI. The procedure:
(§1) FIG. 3A, B, C, D, E, F, G. Binding analyses of anti-SIRPa antibodies on human monocytes (homozygote for SIRPa variant 1 (v1/v1)). [0478] […] Revelation was performed with a PE labeled mouse anti-human Fc mAb on Cantoll cytometer, values corresponding to percentage of stained monocytes. […] A corresponds to the percentage of monocytes v1/v1 stained. B corresponds to the mean of fluorescence intensity (MFI) of monocytes v1/v1. [0479] […] D represents the percentage of stained monocytes over antibody dose response. Statistical analysis were performed when it was possible. [0480] (E, F, G) SIRPa variants binding in the population by anti-h SIRPa antibodies: The capacity of different anti-hSIRPa antibodies to bind SIRPa variants in the 32 volunteers was measured by FACS with a PE-anti mouse IgG. […] F represents the homozygote variant 2 volunteers (n=8). G represents the heterozygote V1/V2 volunteers (n=8).
(§2) Method: To measure the binding of the anti-SIRPa antibodies on human monocytes, human Fc Receptor Binding Inhibitor (BD pharmingen; USA; reference 564220) was first added for 30 min at room-temperature to block human Fc receptors on human monocytes to reduce background. Then, an antibody was incubated for 30 min at 4° C., and washed before stained 30 min at 4° C. with PE-labelled anti-human IgG Fc (Biolegend; USA; reference 409303). For the mouse antibodies, a PE-labelled anti-mouseIgG (Jackson Immunoresearch; reference 715-116-151) was used. Samples were analyzed on BD LSRII or Canto II cytofluorometer.
In general terms: Flow cytometry measures light scatter and fluorescence of single cells or particles in a stream.

Assay [2] concerns the target T1, SIRPa on human monocytes. In words: flow cytometry on human monocytes v1/v1 (Fc receptors blocked), PE anti-human Fc; readout % stained monocytes. The procedure: as §1, §2
The target in assay [3] is T1, SIRPa on human monocytes. Briefly: competition flow cytometry on human monocytes v1/v1: antibody titrated with biotinylated CD47-Fc (competitor; 10 µg/ml in the legend, 5 µg/ml in Example 5), PE-streptavidin; readout % positives. The text has this: (§3) FIG. 5A, B, C. […] [0485] […] A corresponds to the percentage of positive cells. B corresponds to the mean of fluorescence intensity. [0486]

The target in assay [4] is T2, CD47 on human blood cells (T cells, red blood cells, platelets) (human, UniProt Q08722 19-323).
T2 construct: whole, on cells
Briefly: flow cytometry on human red blood cells (left panel) and freshly isolated human platelets (right panel).

In assay [5] the target is T3, recombinant hSIRPa (Sino Biologicals, reference 10975-H08H) (human, UniProt P78324 31-370).
T3 construct: Used in the ELISA with the mouse antibodies
Briefly: ELISA (ED50), immobilized hSIRPa, anti-mouse Fc detection. The procedure:
For the ELISA assay with the mouse antibodies, a recombinant hSIRPa (Sino Biologicals, Beijing, China; reference 10975-H08H) was immobilized on plastic at 0.5 μg/ml in carbonate buffer (pH 9.2) and the purified antibody was added to measure binding.
(In an ELISA, binding on a coated surface is turned into a signal by an enzyme label.)

Assay [6] addresses T1, SIRPa on human monocytes. Briefly: competition flow cytometry on human monocytes v1/v1: antibody titrated with biotinylated CD47-Fc (competitor; 10 µg/ml in the legend, 5 µg/ml in Example 5), PE-streptavidin; readout median fluorescence.
Description: as §3

Values joined by “and” are separate entries in the source; they are usually repeats but may differ in a detail not shown here. Equal entries are not always repeated.

For orientation: EC50 means the concentration needed to bring the measured effect to its halfway point. A word on the IC50: it is the point on the concentration scale where inhibition reaches its midpoint. Low values mean higher potency, high ones lower potency.

B1: HFLA (humanized 18D5 variant) (antibody, human IgG4 S228P, kappa, V domains shown)
VH: EVQLVQSGAEVKKPGESLRISCKASGYSFTSYWVHWVRQMPGKGLEWMGNIDPSDSDTHYSPSFQGHVTLSVDKSISTAYLQLSSLKASDTAMYYCVRGGTGTMAYFAYWGQGTLVTVSS
VL: DVVMTQSPLSLPVTLGQPASISCRSSQSLVHSYGNTYLYWYQQRPGQSPRLLIYRVSNRFSGVPDRFSGSGSGTDFTLKISRVEAEDVGVYFCFQGTHVPYTFGGGTKVEIKR
On to B1, for which the EC50 came to 0.328 µg/mL in assay [1] and 0.174 µg/mL in assay [2].

B2: HFLB (humanized 18D5 variant) (antibody, human IgG4 S228P, kappa, V domains shown)
VH: EVQLVQSGAEVKKPGESLRISCKASGYSFTSYWVHWVRQMPGKGLEWMGNIDPSDSDTHYSPSFQGHVTLSVDKSISTAYLQLSSLKASDTAMYYCVRGGTGTMAYFAYWGQGTLVTVSS
VL: DVVMTQSPLSLPVTLGQPASISCRSSQSLVHSYGNTYLYWFQQRPGQSPRLLIYRVSNRFSGVPDRFSGSGSGTDFTLKISRVEAEDVGVYYCFQGTHVPYTFGGGTKVEIKR
Regarding B2, the figures for the EC50 in assay [1] and in assay [2] were 0.467 µg/mL and 0.201 µg/mL, respectively. This molecule also came in with an IC50 in assay [3] of 0.15 µg/mL.

B3: HEFLA (humanized 18D5 variant) (antibody, human IgG4 S228P, kappa, V domains shown)
VH: EVQLVQSGAEVKKPGESLRISCKASGYSFTSYWVHWVRQMPGKGLEWMGNIDPSDSDTHYSPSFQGHVTLSVDKSISTAYLQLSSLKASDTAMYYCVRGGTGTLAYFAYWGQGTLVTVSS
VL: DVVMTQSPLSLPVTLGQPASISCRSSQSLVHSYGNTYLYWYQQRPGQSPRLLIYRVSNRFSGVPDRFSGSGSGTDFTLKISRVEAEDVGVYFCFQGTHVPYTFGGGTKVEIKR
As to B3, the values for the EC50 in assay [1] and in assay [2] were 0.858 µg/mL and 0.356 µg/mL, respectively.

B4: HALA (humanized 18D5 variant) (antibody, human IgG4 S228P, kappa, V domains shown)
VH: EVQLVQSGAEVKKPGESLRISCKASGYTFTSYWVHWVRQMPGKGLEWIGNIDPSDSDTHYNQKFKDHVTLSVDKSISTAYLQLSSLKASDTAMYYCVRGGTGTMAWFAYWGQGTLVTVSS
VL: DVVMTQSPLSLPVTLGQPASISCRSSQSLVHSYGNTYLYWYQQRPGQSPRLLIYRVSNRFSGVPDRFSGSGSGTDFTLKISRVEAEDVGVYFCFQGTHVPYTFGGGTKVEIKR
With B4, the EC50 is 0.59 µg/mL in assay [1] and 0.242 µg/mL in assay [2].

B5: HEFLB (humanized 18D5 variant) (antibody, human IgG4 S228P, kappa, V domains shown)
VH: EVQLVQSGAEVKKPGESLRISCKASGYSFTSYWVHWVRQMPGKGLEWMGNIDPSDSDTHYSPSFQGHVTLSVDKSISTAYLQLSSLKASDTAMYYCVRGGTGTLAYFAYWGQGTLVTVSS
VL: DVVMTQSPLSLPVTLGQPASISCRSSQSLVHSYGNTYLYWFQQRPGQSPRLLIYRVSNRFSGVPDRFSGSGSGTDFTLKISRVEAEDVGVYYCFQGTHVPYTFGGGTKVEIKR
notes: also called anti-SIRPa HEFLB; HEFLB variant
Take B5: the concentration giving a half-maximal response (EC50) in assay [1] was determined as 0.449 µg/mL; in assay [2], 0.208 µg/mL. For the same molecule, in assay [4], the binding result is given as “no binding”.

B6: mouse antibody 18D5 (antibody, mouse IgG2b, kappa)
heavy: QVQLQQPGAELVRPGSSVKLSCKASGYTFTSYWVHWVKQRPIQGLEWIGNIDPSDSDTHYNQKFKDKASLTVDKSSSTAYMQLSSLTFEDSAVYYCVRGGTGTMAWFAYWGQGTLVTVSAAKTTPPSVYPLAPGCGDTTGSSVTLGCLVKGYFPESVTVTWNSGSLSSSVHTFPALLQSGLYTMSSSVTVPSSTWPSQTVTCSVAHPASSTTVDKKLEPSGPISTINPCPPCKECHKCPAPNLEGGPSVFIFPPNIKDVLMISLTPKVTCVVVDVSEDDPDVQISWFVNNVEVHTAQTQTHREDYNSTIRVVSTLPIQHQDWMSGKEFKCKVNNKDLPSPIERTISKIKGLVRAPQVYILPPPAEQLSRKDVSLTCLVVGFNPGDISVEWTSNGHTEENYKDTAPVLDSDGSYFIYSKLNMKTSKWEKTDSFSCNVRHEGLKNYYLKKTISRSPGK
light: DVVMTQTPLSLPVSLGDQASISCRSSQSLVHSYGNTYLYWYLQKPGQSPKLLIYRVSNRFSGVPDRFSGSGSGTDFTLKISRVEAEDLGVYFCFQGTHVPYTFGSGTKLEIKRADAAPTVSIFPPSSEQLTSGGASVVCFLNNFYPKDINVKWKIDGSERQNGVLNSWTDQDSKDSTYSMSSTLTLTKDEYERHNSYTCEATHKTSTSPIVKSFNRNEC
notes: also called m18D5; m18D5 clone
Turning to B6, the EC50 in assay [5] was 0.06 nM and 0.009 µg/mL.

B7: chimeric mouse/human 18D5 antibody (antibody, human IgG4 S228P, kappa)
heavy: not shown
light: DVVMTQTPLSLPVSLGDQASISCRSSQSLVHSYGNTYLYWYLQKPGQSPKLLIYRVSNRFSGVPDRFSGSGSGTDFTLKISRVEAEDLGVYFCFQGTHVPYTFGSGTKLEIKRTVAAPSVFIFPPSDEQLKSGTASVVCLLNNFYPREAKVQWKVDNALQSGNSQESVTEQDSKDSTYSLSSTLTLSKADYEKHKVYACEVTHQGLSSPVTKSFNRGEC
notes: also called chimeric antibody; chimeric 18D5
For B7, the EC50 was 0.78 µg/mL in assay [1] and 0.225 µg/mL in assay [2]. In assay [6], this molecule displayed an IC50 of 0.2 µg/mL.
